Numbering of substitutions follows the chain as printed. Names and notes keep the numbering of the source.
B1: FLAG-tagged 3DL1*001, P43629 M165A (protein)
chain: HMGGQDKPFLSAWPSAVVPRGGHVTLRCHYRHRFNNFMLYKEDRIHIPIFHGRIFQESFNMSPVTTAHAGNYTCRGSHPHSPTGWSAPSNPVVIMVTGNHRKPSLLAHPGPLVKSGERVILQCWSDIMFEHFFLHKEGISKDPSRLVGQIHDGVSKANFSIGPMALALAGTYRCYGSVTHTPYQLSAPSDPLDIVVTGPYEKPSLSAQPGPKVQAGESVTLSCSSRSSYDMYHLSREGGAHERRLPAVRKVNRTFQADFPLGPATHGGTYRCFGSFRHSPYEWSDPSDPLLVSVTGNPSSSWPSPTEPSSKSGNPRHLHILIGTSVVIILFILLLFFLLHLWCSNKKNAAVMDQEPAGNRTANSEDSDEQDPEEVTYAQLDHCVFTQRKITRPSQRPKTPPTDTILYTELPNAKPRSKVVSCP
B2: FLAG-tagged 3DL1*001, P43629 P199A (protein)
chain: B1 chain with A165M, P199A
B3: FLAG-tagged 3DL1*001, P43629 E282A (protein)
chain: B1 chain with A165M, E282A
B4: FLAG-tagged 3DL1*001, P43629 L166V (protein)
chain: B1 chain with A165M, L166V
B5: FLAG-tagged 3DL1*001, P43629 E282Q (protein)
chain: B1 chain with A165M, E282Q
B6: FLAG-tagged 3DL1*001, P43629 L166A (protein)
chain: B1 chain with A165M, L166A
B7: FLAG-tagged 3DL1*001, P43629 Y200A (protein)
chain: B1 chain with A165M, Y200A
B8: FLAG-tagged 3DL1*001, P43629 Y200F (protein)
chain: B1 chain with A165M, Y200F
B9: FLAG-tagged 3DL1*001, P43629 A167G (protein)
chain: B1 chain with A165M, A167G
B10: FLAG-tagged 3DL1*001, P43629 D230A (protein)
chain: B1 chain with A165M, D230A

Columns and labels:
[1] = biological target: HLA-B*27:05-KF9 N8H tetramer; assay: tetramer staining of transfected HEK293 cells; conditions: chain shown with the change; 0.2 μg tetramer; parent: est. 100; read off a plot
[2] = biological target: HLA-B*27:05-KF9 tetramer; assay: tetramer staining of transfected HEK293 cells; conditions: chain shown with the change; 0.2 μg tetramer; parent: est. 100; read off a plot

Binder	percent of parent [1]	percent of parent [2]
B1	61 % of ·001	60 % of ·001
B2	21 % of ·001	21 % of ·001
B3	48 % of ·001	51 % of ·001
B4	58 % of ·001	36 % of ·001
B5	89 % of ·001	99 % of ·001
B6	45 % of ·001	56 % of ·001
B7	15 % of ·001	16 % of ·001
B8	81 % of ·001	87 % of ·001
B9	130 % of ·001	65 % of ·001
B10	66 % of ·001	70 % of ·001
